# Measurements: PMC10509167, “Identification and characterization of endo-α-, exo-α-, and exo-β-D-arabinofuranosidases degrading lipoarabinomannan and arabinogalactan of mycobacteria” (Nature Communications, 2023)
# Target: the molecule itself
# Assay: crystal structure; ExoMA2 in complex with Tris (1.75 Å) and with β-D-Araf (1.35 Å); dimer in the asymmetric unit; sitting-drop vapor diffusion, 20 °C
protein,measurement,value
"ExoMA2 (MIAR_33170), GH116 exo-β-D-arabinofuranosidase from Microbacterium arabinogalactanolyticum, recombinant (enzyme, UniProt A0AAJ6N6D6 1-867, looked up, ExoMA2, product of gene MIAR_33170 of Microbacterium arabinogalactanolyticum JCM 9171; primers are in Supplementary Data 3; source: E. coli BL21 (DE3), purified (IMAC, anion exchange chromatography, SEC)) MSKIKSRRARRIPHTAESVAFPLGGIGTGNVSLGARGELRDWEFENLPDKGRLNPRSFFAIHAAPQGGPSATRVLEARSSGRHDRDAGYGFDELAGLPRLDSAGLHGEYPVVDIDFTDATLPVTVSLHAFTPLVPLDADASGIPAAVLRYRVVNPGDAPVTVTVVGSMSHTAGRGAPGPDAPWGMRGTQSVRWRESDGIRGLDFDIDLDHDDPGYGTMSLTTTDSSTTVKPQWVTSYWPDGARLFWNDLADDGLLAPEARLTLEDKPRGLFAERDADPDAPALTEEQMLAKLPRVRTGSLGIVHTLAPGEERDFEFVLAWSFPNRRRGWHGHIIFDDALEDGAPDLRDELGPIVRNHYAVRWPDAWAAAAQLHRDLPALEGATDAFVEELYGGSLDPVLADAVGANIAALRSTTCFVLESPTPELGDGPVFAAWEGSFDHGGSCEGTCTHVWSYAQTAAWLFPGLERSARRAEYLLETDESGAQKFRGNRIFGAPRWFIGPAVDGQLGTFLRLHREWRFCGDDEFLRELWPAAARTLDYAAREWDHDGDGLLDGEMHNTYDIEFHGVEPLSNIIHLAALRAGVRMAGHLGDTARAQEWALRADHVAAAIEGVLWNGEYYRQVIDDVDAHRYQYGDGVLSDQLLGQFHAFLGGLGYLLPEAHVRSALDAIVQHNHRGDLRDHESTQRVYALNDEGGLLLASWPEGGRPALPFVYADEVWTGIEHQVAVSLLFAGRYDDALRIERTLRARYDGAHRSPWNEIECGNHYARSLASWGLLIGASGAQWDAGARTLSFDPVLPGDARFLFTTATGWGGVEIGDDVITLRLHGGALDLDELRLRGEVAGRGIHLDAGETRTLTLTLEHHHHHH",stoichiometry N,2
